Consider 3 proteins from publication PMC5076532, “The Vesicle Priming Factor CAPS Functions as a Homodimer via C2 Domain Interactions to Promote Regulated Vesicle Exocytosis*” (The Journal of Biological Chemistry, 2016).

For orientation: stoichiometry N means a count of units in the complex or per binding partner.

Data set [1] concerns the molecule itself. Kind of data set: native gel or EMSA; blue native (BN-PAGE, 5-14% or 6-14%) or clear native (CN-PAGE, 6%, 4 °C) gels of purified soluble protein without lipid; Coomassie or Western blot (CAPS or Myc antibody); 20 mM HEPES, 10 mM NaCl, 10 mM imidazole, 5% glycerol, pH 7.4 for CN-PAGE.
Data set [2] concerns the molecule itself. Kind of data set: cell-based or functional assay.
Data set [3] deals with the molecule itself. Put plainly: atomic force microscopy (volume analysis); 100 pM CAPS dried onto freshly cleaved mica.
Data set [4] deals with the molecule itself. Put plainly: native gel or EMSA; BN-PAGE of 5 μg of purified protein incubated with 1.5 μg of PI(4,5)P2 (micelles) for 0-30 min.

B1: CAPS(G476E)-Myc-His (natural protein)
chain: not shown
notes: CAPS, Rattus norvegicus, NP_037351.1, point mutant made on pcDNA3.1 CAPS-Myc-His; also called counterpart of unc-31(e714); source: HEK293-FT, transfected, purified as Myc-His fusion protein
As to B1, the binding result in data set [1] was “binds”.

B2: CAPS-Myc-His (recombinant wild-type rat CAPS) (natural protein)
chain: not shown
notes: the CAPS ORF in pcDNA3.1 CAPS-Myc-His; the words 'full length' are used only for the antigen of the antibody; also called CAPS-1; CADPS; source: HEK293-FT, transfected (calcium phosphate), purified (nickel-nitrilotriacetic acid column)
In the case of B2, the “Ca2+-dependent norepinephrine secretion from permeable PC12 cells: activity of bound CAPS-Myc-His (exclusively dimer) after wash, relative to added CAPS-Myc-His” value in data set [2] was about 50%. For the same protein, the “stoichiometry N” value in data set [3] came to 2.

B3: CAPS(ΔC2)-Myc-His (natural protein)
chain: not shown
notes: CAPS, Rattus norvegicus, NP_037351.1; amino acids 400-516 deleted from the CAPS ORF, residue 399 directly fused to residue 517; also called ΔC2-CAPS; source: HEK293-FT, transfected, purified as Myc-His fusion protein
Regarding B3, the binding result in data set [4] is “binds”.
